This note sets out measurements from patent US20220177596A1 (Bristol-Myers Squibb, published 2022).

First the molecules themselves.
B1: Y1238-P238K (antibody, human IgG1, kappa)
heavy: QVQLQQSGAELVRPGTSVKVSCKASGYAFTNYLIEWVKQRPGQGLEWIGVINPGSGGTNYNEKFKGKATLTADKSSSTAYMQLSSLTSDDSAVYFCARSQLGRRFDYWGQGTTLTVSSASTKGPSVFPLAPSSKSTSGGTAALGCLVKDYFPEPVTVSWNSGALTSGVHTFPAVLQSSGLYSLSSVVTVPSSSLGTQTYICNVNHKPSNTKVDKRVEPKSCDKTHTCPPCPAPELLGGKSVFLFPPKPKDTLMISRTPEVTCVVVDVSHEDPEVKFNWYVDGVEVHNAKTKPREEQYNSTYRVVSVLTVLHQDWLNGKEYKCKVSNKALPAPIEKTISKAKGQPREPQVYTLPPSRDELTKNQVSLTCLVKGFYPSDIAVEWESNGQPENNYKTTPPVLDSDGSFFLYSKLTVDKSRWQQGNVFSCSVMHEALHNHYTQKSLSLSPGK
light: DIVMTQSHKFMSTSVGDRVSITCKASQDVRTGVAWYQQKPGQSPKLLIYSASYRNTGVPDRFTGSRSGTDFTFTISSVQAEDLAVYYCQQHYSPPYTFGGGTKLEIKRTVAAPSVFIFPPSDEQLKSGTASVVCLLNNFYPREAKVQWKVDNALQSGNSQESVTEQDSKDSTYSLSSTLTLSKADYEKHKVYACEVTHQGLSSPVTKSFNRGEC
notes: Chimeric; also called chimeric Y1238-P238K
B2: Y1238-CTza (antibody, human IgG1, kappa)
heavy: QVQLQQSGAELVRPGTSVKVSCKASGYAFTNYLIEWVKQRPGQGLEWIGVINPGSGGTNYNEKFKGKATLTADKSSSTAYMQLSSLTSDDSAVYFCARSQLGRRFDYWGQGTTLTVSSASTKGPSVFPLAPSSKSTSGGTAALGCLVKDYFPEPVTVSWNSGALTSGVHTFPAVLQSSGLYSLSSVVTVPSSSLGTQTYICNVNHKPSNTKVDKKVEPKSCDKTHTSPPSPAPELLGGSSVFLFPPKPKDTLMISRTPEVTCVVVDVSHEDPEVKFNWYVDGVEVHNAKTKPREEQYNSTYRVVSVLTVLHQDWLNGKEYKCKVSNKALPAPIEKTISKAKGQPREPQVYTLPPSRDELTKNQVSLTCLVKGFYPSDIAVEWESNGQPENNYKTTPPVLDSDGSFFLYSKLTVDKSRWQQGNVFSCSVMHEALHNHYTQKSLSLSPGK
light: B1 light
notes: Chimeric; also called chimeric Y1238 CTza
B3: Y1238-N297A (antibody, human IgG1, kappa, N297A)
heavy: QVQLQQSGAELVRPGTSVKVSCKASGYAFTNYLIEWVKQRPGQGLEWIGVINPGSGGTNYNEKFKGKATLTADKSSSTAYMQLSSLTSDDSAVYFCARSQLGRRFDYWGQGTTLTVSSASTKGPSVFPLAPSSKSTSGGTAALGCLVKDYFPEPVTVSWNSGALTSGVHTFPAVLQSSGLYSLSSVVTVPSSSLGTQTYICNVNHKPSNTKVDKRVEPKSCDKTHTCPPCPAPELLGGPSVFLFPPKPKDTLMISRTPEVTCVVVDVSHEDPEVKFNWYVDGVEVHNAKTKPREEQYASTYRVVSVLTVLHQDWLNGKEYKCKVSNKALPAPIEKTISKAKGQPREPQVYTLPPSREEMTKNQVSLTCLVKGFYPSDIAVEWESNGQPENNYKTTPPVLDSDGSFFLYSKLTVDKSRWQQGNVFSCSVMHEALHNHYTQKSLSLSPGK
light: B1 light
notes: Chimeric; also called chimeric Y1238-N297A
B4: 5F11-45-IgG1f (antibody)
heavy: not shown
light: DIVLTQSPDSLAVSLGERATINCRASKNVDSYGNSFMHWYQQKPGQPPKLLIYRASNLESGVPDRFSGSGSGTDFTLTISSLQAEDVAVYYCQQSNEDPLTFGQGTKLEIKRTVAAPSVFIFPPSDEQLKSGTASVVCLLNNFYPREAKVQWKVDNALQSGNSQESVTEQDSKDSTYSLSSTLTLSKADYEKHKVYACEVTHQGLSSPVTKSFNRGEC
notes: Humanized anti-CD40, wild type human IgG1f
B5: 5F11-45-SE (antibody, human IgG1, kappa)
heavy: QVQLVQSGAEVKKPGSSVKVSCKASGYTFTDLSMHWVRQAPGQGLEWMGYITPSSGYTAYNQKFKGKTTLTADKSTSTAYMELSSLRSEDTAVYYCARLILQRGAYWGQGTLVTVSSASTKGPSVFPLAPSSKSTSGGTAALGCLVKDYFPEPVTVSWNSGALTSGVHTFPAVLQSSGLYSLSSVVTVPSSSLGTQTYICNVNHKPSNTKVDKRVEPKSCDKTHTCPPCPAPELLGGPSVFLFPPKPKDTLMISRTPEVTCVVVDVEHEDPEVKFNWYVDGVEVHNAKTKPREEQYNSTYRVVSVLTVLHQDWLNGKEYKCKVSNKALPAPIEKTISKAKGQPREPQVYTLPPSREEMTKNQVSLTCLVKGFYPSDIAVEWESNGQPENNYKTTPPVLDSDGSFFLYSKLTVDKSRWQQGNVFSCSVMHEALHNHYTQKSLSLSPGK
light: B4 light
notes: also called S267E variant
B6: 5F11-45-V11 (antibody, human IgG1, kappa)
heavy: QVQLVQSGAEVKKPGSSVKVSCKASGYTFTDLSMHWVRQAPGQGLEWMGYITPSSGYTAYNQKFKGKTTLTADKSTSTAYMELSSLRSEDTAVYYCARLILQRGAYWGQGTLVTVSSASTKGPSVFPLAPSSKSTSGGTAALGCLVKDYFPEPVTVSWNSGALTSGVHTFPAVLQSSGLYSLSSVVTVPSSSLGTQTYICNVNHKPSNTKVDKRVEPKSCDKTHTCPPCPAPELLGDDSVFLFPPKPKDTLMISRTPEVTCVVVDVSDEDGEVKFNWYVDGVEVHNAKTKPREEQYNSTYRVVSVLTVLHQDWLNGKEYKCKVSNKALPRPIEKTISKAKGQPREPQVYTLPPSREEMTKNQVSLTCLVKGFYPSDIAVEWESNGQPENNYKTTPPVLDSDGSFFLYSKLTVDKSRWQQGNVFSCSVMHEALHNHYTQKSLSLSPGK
light: B4 light
notes: Control with enhanced selectivity for hCD32b
B7: 5F11-45-P238K (antibody, human IgG1, kappa)
heavy: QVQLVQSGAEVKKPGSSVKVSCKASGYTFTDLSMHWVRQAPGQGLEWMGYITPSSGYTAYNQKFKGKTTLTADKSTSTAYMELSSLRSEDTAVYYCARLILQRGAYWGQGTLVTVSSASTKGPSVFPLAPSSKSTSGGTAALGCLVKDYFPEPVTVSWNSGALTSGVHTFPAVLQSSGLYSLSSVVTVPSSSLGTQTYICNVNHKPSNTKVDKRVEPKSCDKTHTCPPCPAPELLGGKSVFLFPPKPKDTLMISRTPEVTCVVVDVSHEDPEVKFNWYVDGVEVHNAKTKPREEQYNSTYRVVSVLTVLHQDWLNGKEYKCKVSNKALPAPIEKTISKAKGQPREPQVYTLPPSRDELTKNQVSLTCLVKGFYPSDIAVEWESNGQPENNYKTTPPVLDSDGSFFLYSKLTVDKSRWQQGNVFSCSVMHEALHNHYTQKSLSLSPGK
light: B4 light
B8: 5F11-45-CTza (antibody, human IgG1, kappa)
heavy: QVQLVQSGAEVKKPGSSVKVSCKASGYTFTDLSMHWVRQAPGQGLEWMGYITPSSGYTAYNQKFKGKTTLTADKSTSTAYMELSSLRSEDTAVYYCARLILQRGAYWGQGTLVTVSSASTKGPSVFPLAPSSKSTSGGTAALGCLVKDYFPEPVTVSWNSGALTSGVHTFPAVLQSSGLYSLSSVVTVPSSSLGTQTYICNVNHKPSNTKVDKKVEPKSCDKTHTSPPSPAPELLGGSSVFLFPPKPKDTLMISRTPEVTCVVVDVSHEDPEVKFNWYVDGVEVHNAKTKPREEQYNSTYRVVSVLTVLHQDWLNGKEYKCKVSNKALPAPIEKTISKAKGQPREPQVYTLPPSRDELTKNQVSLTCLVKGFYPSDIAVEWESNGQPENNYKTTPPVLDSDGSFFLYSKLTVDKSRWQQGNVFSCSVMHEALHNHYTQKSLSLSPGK
light: B4 light
B9: 5F11-45-N297A (antibody, human IgG1, kappa, N297A)
heavy: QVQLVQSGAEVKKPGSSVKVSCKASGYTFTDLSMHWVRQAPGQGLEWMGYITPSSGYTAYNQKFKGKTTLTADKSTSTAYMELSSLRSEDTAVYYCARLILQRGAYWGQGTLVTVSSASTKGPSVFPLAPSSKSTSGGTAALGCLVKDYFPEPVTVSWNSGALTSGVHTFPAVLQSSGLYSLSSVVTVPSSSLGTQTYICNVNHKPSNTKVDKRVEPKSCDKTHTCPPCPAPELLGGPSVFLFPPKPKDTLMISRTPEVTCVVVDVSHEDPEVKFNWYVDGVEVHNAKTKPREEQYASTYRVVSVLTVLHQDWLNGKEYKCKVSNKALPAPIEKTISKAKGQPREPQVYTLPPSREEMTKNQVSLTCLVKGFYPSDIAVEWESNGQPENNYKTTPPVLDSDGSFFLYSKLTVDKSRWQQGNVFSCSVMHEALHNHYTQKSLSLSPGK
light: B4 light

Changes are numbered by the printed parent chain. Names and notes keep the numbering of the source.

In one test the target is T1, hCD64-His (human, UniProt P12314 16-288, limits assumed).
T1 construct: Generated in house; captured on anti-His Fab; also called hFcgRI; FcgRI
T1 sequence (P12314 other isoform, or with tags, fused parts or gaps limits assumed): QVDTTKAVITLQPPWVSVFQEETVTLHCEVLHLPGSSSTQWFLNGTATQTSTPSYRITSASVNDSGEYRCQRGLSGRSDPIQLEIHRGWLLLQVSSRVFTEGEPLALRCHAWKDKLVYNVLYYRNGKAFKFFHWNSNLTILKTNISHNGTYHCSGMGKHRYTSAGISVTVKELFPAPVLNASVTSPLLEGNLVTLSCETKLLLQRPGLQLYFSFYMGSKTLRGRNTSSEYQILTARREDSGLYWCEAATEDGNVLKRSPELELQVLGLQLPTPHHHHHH
In words: SPR. The method, then: (§1) FCGR BINDING SPR: FcgR binding can be measured in vitro using purified FcgRs using methods such as BIAcore™ surface plasmon resonance (SPR). One method tests the binding of purified antibodies to His-tagged FcgR proteins (FcgR-His) which are captured on the immobilized Fab fragment of an anti-His antibody. These experiments are performed on either a BIAcore™ T100 or BIAcore™ T200 instrument (GE Healthcare Life Sciences, Marlborough, Mass.) at 25° C. The Fab fragment from a murine anti-6×His antibody (generated in house) is immobilized on a CMS sensor chip using standard ethyl(dimethylaminopropyl) carbodiimide (EDC)/N-hydroxysuccinimide (NHS) chemistry with ethanolamine blocking, to a density of ˜3000 RU in a running buffer of 10 mM HEPES pH 7.4, 150 mM NaCl, 3 mM EDTA, 0.05% surfactant p20 (HBS-EP+). All remaining studies are performed using a running buffer of 10 mM NaPO4, 130 mM NaCl, 0.05% p20 (PBS-T) pH 7.1. Various FcγR proteins containing a C-terminal 6× poly-histidine tag (generated in house) are captured on this surface (typically using FcgR-his protein concentration of ˜7 μg/ml) using a contact time of 30 sec at 10 μl/min. Various concentrations of purified antibody are tested for binding, for example using an association time of 120 seconds at 30 μl/min, and a dissociation time of 120 seconds at 30 μl/min. FcgR proteins tested in these studies include the “high affinity” FcgR CD64 (hFcgRI), as well as the “low affinity” FcgRs CD32a-H131 (FcgRIIa-H131), CD32a-R131 (FcgRIIa-R131), CD32b (FcgRIIb), CD16a-V158 (FcgRIIIa-V158), and CD16b-NA2 (FcgRIIIb-NA2).
Turning to B1, the binding result was “binds”.
As for B2, the binding result is “binds”.
With B3, the binding result is recorded as “binds”.

The target of the next test is T2, hCD32a-H131-His (human, UniProt P12318 34-217).
T2 construct: Generated in house; captured on anti-His Fab; also called FcgRIIa-H131
T2 sequence: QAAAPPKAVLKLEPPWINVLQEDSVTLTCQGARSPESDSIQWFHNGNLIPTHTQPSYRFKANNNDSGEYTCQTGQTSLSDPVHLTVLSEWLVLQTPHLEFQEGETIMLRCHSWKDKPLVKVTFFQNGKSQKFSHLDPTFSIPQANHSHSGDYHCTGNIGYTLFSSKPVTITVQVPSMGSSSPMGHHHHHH
The test is described as follows: SPR. The method, then: as §1
Turning to B4, the binding result is recorded as “binds”.
Same read-out and setting: in the case of B5 it was “binds”.

The next test addresses T3, hCD32a-R131-His (human, UniProt P12318 34-217).
T3 construct: Generated in house; captured on anti-His Fab; Allele R131 as printed; the database entry may carry H at that position; also called FcgRIIa-R131
T3 sequence: T2 sequence with H134R
In words: SPR. The method, then:
as §1
B4: the binding result was “binds”.
Take B5: the binding result is “binds”.

Another test concerns the target T4, hCD32b-His (human, UniProt P31994 43-217).
T4 construct: Generated in house; captured on anti-His Fab; also called FcgRIIb
T4 sequence: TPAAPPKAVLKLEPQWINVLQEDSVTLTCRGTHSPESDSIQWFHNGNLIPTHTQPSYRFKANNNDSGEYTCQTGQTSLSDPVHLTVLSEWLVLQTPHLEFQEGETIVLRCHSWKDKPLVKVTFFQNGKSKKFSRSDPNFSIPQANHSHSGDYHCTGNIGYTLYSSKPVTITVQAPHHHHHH
The test is described as follows: SPR. The method, then:
as §1
As to B4, the binding result is “binds”.
Regarding B6, the binding result is given as “binds”.
Consider B5, for which the binding result is reported as “binds”.

In the next test the target is T5, hCD16a-V158-His (human, UniProt P08637 17-208).
T5 construct: Generated in house; captured on anti-His Fab; Allele V158 as printed; the database entry may carry F at that position; also called FcgRIIIa-V158
T5 sequence (P08637 other isoform, or with tags, fused parts or gaps limits assumed): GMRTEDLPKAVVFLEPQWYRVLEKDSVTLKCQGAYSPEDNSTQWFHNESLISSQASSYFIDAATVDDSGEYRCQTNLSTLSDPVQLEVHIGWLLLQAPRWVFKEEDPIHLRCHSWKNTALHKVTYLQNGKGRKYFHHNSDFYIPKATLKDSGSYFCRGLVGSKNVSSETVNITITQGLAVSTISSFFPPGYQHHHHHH
The test is described as follows: SPR. The method, then:
as §1
Regarding B4, the binding result is “binds”.

The target in a further test is human CD40 on primary human cells (tonsillar B cells, immature dendritic cells) (human, UniProt P25942 21-277). The test is described as follows: cell-based or functional assay.
Sequence of human CD40 on primary human cells (tonsillar B cells, immature dendritic cells) (P25942 21-277 limits assumed): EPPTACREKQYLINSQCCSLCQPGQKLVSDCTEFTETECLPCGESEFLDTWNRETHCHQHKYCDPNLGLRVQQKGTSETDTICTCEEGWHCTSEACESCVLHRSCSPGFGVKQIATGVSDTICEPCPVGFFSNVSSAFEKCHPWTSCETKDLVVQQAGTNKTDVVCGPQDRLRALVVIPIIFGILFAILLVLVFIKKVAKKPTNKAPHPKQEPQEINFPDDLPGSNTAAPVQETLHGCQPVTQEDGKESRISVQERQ
B1: the “IC50 for inhibition of proliferation of B cells, CD40L Trimer” value (“IC50 for inhibition … CD40L Trimer” below) stood at 3.4 ng/mL and the “IC50 for inhibition of proliferation of B cells, CHO CD40L” value came to 18.4 ng/mL.
Consider B3, for which the “IC50 for inhibition … CD40L Trimer” value was determined as 3.6 ng/mL and the “IC50 for inhibition of proliferation of B cells, CHO CD40L” value came out at 17 ng/mL.
As to B7, the “IC50 for inhibition … CD40L Trimer” value is 10 ng/mL.

The target in the next test is T6, human-CD40 monomer (human, UniProt P25942 21-193, limits assumed).
T6 construct: also called hCD40-monomer; human-CD40-monomer protein
T6 sequence (P25942 21-193 limits assumed): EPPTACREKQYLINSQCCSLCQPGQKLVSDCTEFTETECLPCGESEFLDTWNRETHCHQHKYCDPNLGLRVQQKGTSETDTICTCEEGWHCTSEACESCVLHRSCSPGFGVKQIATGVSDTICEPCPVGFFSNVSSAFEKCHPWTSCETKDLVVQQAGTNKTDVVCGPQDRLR
The test is described as follows: SPR, Ab captured on protein A, CD40 monomer analyte.
As for B4, the Kd stood at 6.7 nM, the koff turned out to be 0.00046 s⁻¹ and the kon was 69000 M⁻¹ s⁻¹.
For B6 the same measures were 3.9 nM, 0.0003 s⁻¹ and 79000 M⁻¹ s⁻¹.
Consider B8, for which the Kd was found to be 1.6 nM, the koff amounted to 0.00014 s⁻¹ and the kon was 88000 M⁻¹ s⁻¹.
B5 had a Kd of 6.6 nM, a koff of 0.00047 s⁻¹ and a kon of 71000 M⁻¹ s⁻¹.
B9 yielded a Kd of 2.8 nM, a koff of 0.00022 s⁻¹ and a kon of 80000 M⁻¹ s⁻¹.
For B7 the same measures were 3.3 nM, 0.00027 s⁻¹ and 79000 M⁻¹ s⁻¹.

A further test concerns the target T6, human-CD40 monomer. The test is described as above. This is another data set of the same source. The method, then:
These chimeric antibodies were tested for CD40 and FcgR binding by SPR, as well as for iDC activation.
In turn, B1 registered a Kd of 2.6 nM, a koff of 0.00026 s⁻¹ and a kon of 97000 M⁻¹ s⁻¹.
For B2 the same measures were 2.3 nM, 0.00023 s⁻¹ and 100000 M⁻¹ s⁻¹.
B3 came in with a Kd of 2.5 nM, a koff of 0.00024 s⁻¹ and a kon of 97000 M⁻¹ s⁻¹.

Another test has as its target T1, hCD64-His. The test is described as follows: SPR (BIAcore): 7 µg/ml hCD64-His captured on an anti-His Fab surface, 1 µM antibody as analyte. The method, then:
as §1
On to B4, for which the binding result is “binds”.
Take B8: the binding result is recorded as “binds”.
As to B9, the binding result is reported as “binds”.
The same measure, in the same setting: the result for B7 reads “binds”.
